Reference: patent US20140170125A1, “USE OF CARDIOTROPHIN-1 FOR THE TREATMENT OF KIDNEY DISEASES” (DIGNA Biotech, S.L., priority 2011, published 2014)
Entries after “also recorded” stand apart in the source; their conditions may differ.

What was measured:
[1] = system: acute kidney injury produced by gentamicin; assay: Acute kidney injury produced by gentamicin; conditions: for urinary flow: administered separately, vs control group (C); for reactive bands to the anti KIM-1 antibody in the urine / renal levels of KIM-1 (Western blot): vs controls; for survival: until the end of the experiment
[2] = system: experimental model of iodinated contrast nephropathy; assay: Contrast-induced nephropathy: Gastrografin in rats sensitized with subtoxic gentamicin; conditions: for KIM-1 in the urine (Western blot): in comparison with the controls; for general condition (appearance, mobility): throughout the experiment; for survival: until the end of the experiment (four days after contrast); for PAI-1 in the urine (Western blot): vs control group
Experimental: The rats were placed in individual metabolic cages where they had free access to food and drink. After two days of acclimatization, the 24-hour urine was collected in graduated cylinders. The urine collected was centrifuged during 8 minutes at 2,500 rpm, to clean it from residues not thereof, the clean urine was collected and it was stored at −80° C. for its later analysis.
The blood samples were obtained in capillaries with heparin by a small cut at the end of the tail. Five capillaries were extracted per rat (200 μL), and the capillaries were centrifuged in a microcentrifuge at 11,000 rpm during three minutes. Once centrifuged, the capillaries were broken with the aid of a file, by the cells-plasma limit. The plasma was extracted and stored in eppendorf tubes at −80° C. for its later analysis.
To measure kidney function, the plasma concentrations of creatinine and creatinine clearance, which is a measurement of the glomerular filtration rate, were determined. The creatinine clearance (CrCl) was calculated from the formula CrCl=UF×CrU/CrP, where UF is the urinary flow (ml/min), CrU the creatinine concentration in urine (mg/ml) and CrP the creatinine concentration in plasma (mg/ml). The creatinine concentration in urine and in plasma were measured by a semiautomatic analyser (Reflotron, Roche).
The concentration of urea in plasma was measured by specific reactive strips of a commercial kit, using a semiautomatic analyser (Reflotron, Roche).
The concentration of proteins in urine (proteinuria) was measured by Bradford's colorimetric method (Anal Biochem. 1976; 72:248-54). The urinary excretion of proteins (UEprot) in 24 hours was calculated by the formula: UEprot=Cprot×FU24 h, where Cprot is the concentration of proteins in urine (mg/mL) and FU24 h the urinary flow of 24 hours (mL/day).
For its determination a commercial kit from Roche was used, following the manufacturer's specifications, and the results were analysed with the KC-Junior software.
In the Western Blot technique, 100 μg of protein of the total of the renal tissue homogenate or a volume of urine of each animal which corresponds to the excretion fraction were loaded in a polyacrylamide gel. After separation by electrophoresis, these proteins were transferred to a PVDF membrane (Inmobilon-P #IPVH00010, Madrid, Spain), and they were hybridized with antibodies against KIM-1 (R&D Systems) and NGAL (MBL).
An experimental model of iodinated contrast nephropathy was used, consisting of the intravenous administration of the iodinated contrast Gastrografin (Bayer C. N. 909622 EXO) to rats predisposed to suffering acute kidney failure.
The experiment was performed on 32 male Wistar rats of around 220 grams in weight. The environmental conditions of the animals were kept constant: temperature of around 20° C., humidity of approximately 60% and daily light period (photoperiod) of 12 hours.
Six experimental groups were considered in the design study:
Control group (C): rats administered saline solution (n=5).
Cardiotrophin group (CT-1): rats administered cardiotrophin i.v. (100 μg/Kg/day) the day before the administration of the contrast and in the four subsequent days (n=5).
Gastrografin group (Gg): rats administered a single dose of iodinated agent i.v. (10 mL/Kg; […]) (n=5).
The animals were housed in metabolic cages in order to collect the urine free of faeces. Likewise, a blood sample was obtained every day (0.150 ml) from the tail in heparized capillaries.
At the end of the experiments (four days after administration of the iodinated contrast) the rats were anaesthetized and, later, they were perfused with heparinized saline solution. The kidneys were obtained from these animals and part of the samples was introduced in formol to perform histological studies whilst another part was ultrafrozen for the tissue studies.
The studies performed were the following:
Plasma creatinine, Plasma urea, proteinuria, microalbuminuria
Creatinine clearance in metabolic cages

[3] = system: rats subjected to 60 minutes of left renal ischemia; assay: Acute kidney injury produced by renal ischemia/reperfusion (60 minutes of left renal ischemia); type: in vivo
[4] = system: cisplatin-induced kidney injury; assay: Acute kidney injury produced by cisplatin; type: in vivo, Wistar rats
Experimental: The urinary flow (mL/day) was evaluated measuring the graduated receptacles containing the 24-hour urine in the metabolic cages as indicated in the obtainment of urine.
The experiment was performed in 24 male Wistar rats of around 220 grams in weight.
The animals were divided in 4 experimental groups, comprising 6 rats per group. […] The experimental design was developed as described below:
Group I (Control, C, n=6 animals) animals treated with vehicle via i.v. during 7 days.
Group II (Cardiotrophin-1, CT-1, n=6 animals) animals administered a daily dose of cardiotrophin-1 of 100 μg/kg body weight via i.v. during 7 days.

[5] = agents without CT-1 protection or alone, vs control
[6] = 4 hours after reperfusion, elevation induced by IR
[7] = group Gg+G+CT-1, CT-1 100 μg/Kg/day i.v.

gentamicin [reference compound] was tested, and the urinary flow [1] was “Neither G nor CT-1, administered separately, modified the urinary flow”, the “general condition (appearance, mobility)” value ([1]; agent alone) was “more deteriorated appearance, reduced mobility and slight colouring of the hair” and the proteinuria ([1]; agent alone) was “high proteinuria”. For the same molecule, the “reactive bands to the anti KIM-1 antibody in the urine” value ([1]; agent alone) was “clear increase”, the “renal levels of KIM-1 (Western blot)” value ([1]; agent alone) was “clear increase” and the “liver weight (with respect to the body weight)” value ([1]; at the time of sacrifice) was “tendency for relative weight reduction”. For the same molecule, the “renal and urinary NGAL (Western blot)” value ([1]; end of treatments) was “induce an increase”, the “renal cortex histology (hematoxylin-eosin)” value ([1]; gentamicin alone, end of treatments) was “massive tubular necrosis” and the survival [1] was “one animal from each group died”. For the same molecule, the body weight ([1]; vs control and CT-1 groups) was “slight decrease”, the proteinuria [2, 5] was “did not alter” and the “KIM-1 in the urine (Western blot)” value [2] was “produced no effect”. For the same molecule, the “general condition (appearance, mobility)” value [2] was “healthy appearance and normal mobility”, the survival [2] was “all animals survived until the end of the experiment” and the “PAI-1 in the urine (Western blot)” value [2] was “not different from the control group animals”.

B1: CT-1: cytokine belonging to the interleukin 6 family; recombinant human CT-1 or rat cardiotrophin-1 administered i.v. (protein, UniProt Q16619 1-201, looked up)
Cardiotrophin-1: MSRREGSLEDPQTDSSVSLLPHLEAKIRQTHSLAHLLTKYAEQLLQEYVQLQGDPFGLPSFSPPRLPVAGLSAPAPSHAGLPVHERLRLDAAALAALPPLLDAVCRRQAELNPRAPRLLRRLEDAARQARALGAAVEALLAALGAANRGPRAEPPAATASAASATGVFPAKVLGLRVCGLYREWLSRTEGDLGQLLPGGSA
In the case of B1, the “decrease of plasma levels of IL-6 after ischemia and reperfusion” value ([3]; 4 hours after reperfusion) is reported as “not observed”, the “decrease of plasma levels of IL-10 after ischemia and reperfusion” value ([3]; 4 hours after reperfusion) is reported as “not observed” and the “plasma levels of IFN-γ” value [3, 6] is reported as “blocked the elevation”. For the same molecule, the “plasma levels of IL-1β” value [3, 6] was “blocked the elevation”, the “plasma levels of TNF-α” value [3, 6] was “blocked the elevation” and the “obstructed tubules and vacuolated cells (histology)” value ([3]; 24 hours after reperfusion, vs control kidneys) was “less abundant”. The creatinine clearance ([3]; 48 hours after I/R, vs IR C) was “significantly higher”, the plasma creatinine ([3]; 48 hours after I/R, vs IR C, no significant differences vs simulated group) was “markedly lower” and the “denuded tubules and inflammatory infiltration (histology)” value ([3]; 48 hours after reperfusion, vs control kidneys) was “less abundant”. For the same molecule, the mortality ([3]; 14 days after the I/R, CT-1 400 μg/kg, untreated ischemic group 40%) was 20%, the “acute kidney injury induced by ischemia/reperfusion (conclusion)” value ([3]; also decrease in kidney function, oxidative stress and inflammation) was “prevents acute kidney injury” and the “renal levels of superoxide anion (SOA)” value ([3]; four hours after reperfusion, vs ischemic control group, significantly greater than simulated group) was “significantly less”. The “gentamicin-induced symptoms (appearance, mobility, hair) in group G+CT-1” value ([1]; CT-1 100 μg/kg/day i.v. 7 days + gentamicin 150 mg/kg/day i.p. 6 days) was “significantly reduced”, the “effect on the decrease in creatinine clearance produced by G” value ([1]; CT-1 together with G) was “partially reversed” and the “effect on the increase in plasma creatinine produced by G” value ([1]; CT-1 together with G) was “partially reversed”. The “effect on the increase in plasma urea concentration produced by G” value ([1]; CT-1 together with G) was “partially reversed”, the “effect on the proteinuria produced by G” value ([1]; CT-1 together with G) was “partially reversed” and the urinary flow [1] was “Neither G nor CT-1, administered separately, modified the urinary flow”. For the same molecule, the creatinine clearance ([1]; agent alone) was “did not alter”, the “general condition (appearance, mobility)” value ([1]; agent alone) was “healthy appearance and normal mobility” and the plasma creatinine ([1]; agent alone) was “did not alter”. The proteinuria ([1]; agent alone) was “did not alter”, the urea plasma concentration ([1]; agent alone) was “did not alter” and the “reactive bands to the anti KIM-1 antibody in the urine” value ([1]; agent alone) was “does not produce any effect”. For the same molecule, the “renal levels of KIM-1 (Western blot)” value ([1]; agent alone) was “does not produce any effect”, the “liver weight (with respect to the body weight)” value ([1]; at the time of sacrifice) was “certain hepatomegaly” and the “spleen weight (with respect to the body weight)” value ([1]; at the time of sacrifice) was “marked splenomegaly”. The “systolic blood pressure (SBP)” value ([1]; basal vs end of treatments (d 6)) was “not observed”, the “extension of gentamicin tubular damage under cotreatment (histology)” value ([1]; cotreatment with CT-1) was “moderately and partially prevents the extension of tubular damage” and the “renal and urinary NGAL (Western blot)” value ([1]; end of treatments) was “induce an increase”. For the same molecule, the “effect on the increase in NAG excretion produced by G” value ([1]; especially the submaximal of the first days) was “reduces this increase”, the “effect on the increase in KIM-1 expression in the kidney that G produces” value ([1]; group G+CT-1) was “does not appreciably decrease” and the “effect on the weight loss produced by G” value ([1]; group G+CT-1) was “partially mitigated”. For the same molecule, the “upper band (approx. 90 kDa) of KIM-1 in the urine under G with CT-1” value ([1]; group G+CT-1) was “partially decreases”, the “effect on acute kidney injury produced by gentamicin (conclusion)” value ([1]; recombinant human CT-1 i.v. 100 μg/kg/day, 7 days) was “protective effect” and the survival [1] was “all animals survived until the end of the experiment”. For the same molecule, the creatinine clearance [2, 5] was “did not alter”, the “plasma concentration of creatinine” value [2, 5] was “did not alter” and the proteinuria [2, 5] was “did not alter”. For the same molecule, the urea plasma concentration [2, 5] was “did not alter”, the “effect on the RPF decrease produced by Gg+G” value ([2]; co-treatment with CT-1) was “reversal” and the “effect on the RVR increase produced by gentamicin and gastrografin” value ([2]; coadministration of CT-1) was “counteracted the increase”. The “PAI-1 in the urine under Gg+G with CT-1” value ([2]; group Gg+G+CT-1) was “does not appear”, the “effect on the GFR decrease produced by Gg+G” value ([2]; group Gg+G+CT-1) was “reversed” and the “effect on the NAG increase produced by Gg+G” value ([2]; group Gg+G+CT-1) was “reduced this increase”. The “effect on the decrease in creatinine clearance produced by Gg+G” value [2, 7] was “partially reversed”, the “effect on the increase in plasma concentration of creatinine produced by Gg+G” value [2, 7] was “partially reversed” and the “effect on the increase in plasma urea produced by Gg+G” value [2, 7] was “partially reversed”. The “effect on the proteinuria produced by Gg+G” value [2, 7] was “partially reversed”, the “KIM-1 in the urine (Western blot)” value [2] was “produced no effect” and the “deterioration of renal excretory function and intensity of tubular damage (conclusion)” value ([2]; recombinant human CT-1 i.v. 100 μg/kg/day, contrast nephropathy in animals sensitized with gentamicin) was “reduces”. For the same molecule, the “general condition (appearance, mobility)” value [2] was “healthy appearance and normal mobility”, the survival [2] was “all animals survived until the end of the experiment” and the “effect on the increase in KIM-1 expression produced by Gg+G” value ([2]; urine, Western blot, group Gg+G+CT-1) was “considerably decreases the increase”. The “PAI-1 in the urine (Western blot)” value [2] was “not different from the control group animals”, the body weight ([4]; agent alone, vs control group) was “without apparent differences; also recorded: does not show changes” and the plasma creatinine ([4]; agent alone, vs control group) was “does not reflect changes”. The “cisplatin-induced reduction in body weight under joint treatment” value ([4]; cardiotrophin-1 100 μg/kg i.v. 7 days + cisplatin 6 mg/kg i.p., vs cisplatin) was “significantly less”, the “cisplatin-induced increase in plasma creatinine under joint treatment” value ([4]; cardiotrophin-1 100 μg/kg i.v. 7 days + cisplatin 6 mg/kg, vs cisplatin) was “significantly less” and the “physical condition during coadministration with cisplatin” value ([4]; cardiotrophin-1 + cisplatin) was “spectacular improvement”. For the same molecule, the “cisplatin-induced increase in final kidney weight under joint treatment” value ([4]; cardiotrophin-1 + cisplatin, vs cisplatin) was “substantially less”, the “effect on cisplatin-induced kidney injury (conclusion)” value ([4]; rat cardiotrophin-1 100 μg/kg/day i.v. 7 days, cisplatin 6 mg/kg) was “protective effect” and the survival ([4]; throughout the experimental period, vs control group) was “does not modify the survival”. For the same molecule, the “urinary flow under joint administration with cisplatin” value ([4]; without significant differences vs control and cardiotrophin-1 groups) was “constant evolution”.
